# Test results as given in article PMC7890063, “Bioinformatics-aided identification, characterization and applications of mushroom linalool synthases” (Communications Biology, 2021).
# B1: Aa.LNS (AAE3_109435) (Cyclocybe aegerita) (protein)
# chain: MHSSTQLFTHSPTKMQIILPDLLCSWGYKGFLNPHYEGAKAESNTWIRPLVVKLFDERGQKAFAKDYTGLLASMTYPHHNKEFLCVACDMMNLFFVYDEYTDITPPETAQRLAKIVVNAMRNPDEIAALGEDSIGTMTKQFWRRAMTLLPPNGCNSESCIQHFIDYTEEYLTAVTREACDRSSGSVHAVKDYLAMRRATSGAGLMVGLLEFGLDLPEEVMKHEVIQELSTGAIDMYCLLNDMHSYASELSSGQASHNVITVVMHERNLSLQEAFDWLASYAAGVVKGFKTNLNRVPSFSELEDHSLHGEGMLRDRIQRYIDGLGQAVRAEDDWAFETTRYHGQNGPQIKLTRMLTIRPQVKDNYAKQAPRVEAPERPMLLEVRS
# Assays:
# Sc.LNS = target: T1, Sc.LNS (Streptomyces clavuligerus, UniProt D5SL78); assay: product formation in E. coli, GC-MS; format: cell-based; settings: E. coli with mevalonate pathway; product nerolidol
# T1 construct: gene SCLAV_p1185; codon-optimised gene in pET-11a, expressed in E. coli with mevalonate pathway, not purified
# T1 sequence (D5SL78 1-329): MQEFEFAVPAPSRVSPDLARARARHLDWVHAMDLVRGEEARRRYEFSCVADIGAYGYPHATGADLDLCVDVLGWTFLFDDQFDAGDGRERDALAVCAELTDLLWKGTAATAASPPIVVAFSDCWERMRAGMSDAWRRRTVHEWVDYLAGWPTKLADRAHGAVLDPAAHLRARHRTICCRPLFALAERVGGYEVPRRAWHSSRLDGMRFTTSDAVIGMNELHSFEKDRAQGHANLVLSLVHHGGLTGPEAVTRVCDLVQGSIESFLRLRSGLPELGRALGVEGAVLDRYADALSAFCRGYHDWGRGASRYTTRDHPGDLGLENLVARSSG
# Ap.LS (Agrped1_689675) = assay: PPi release, EnzChek pyrophosphate assay; format: biochemical, Agrocybe pediades; settings: 37 °C, 1 h; enzyme 71.2% pure; product (R)-linalool; read-out: Monoterpene synthase
# Description: PPi release, EnzChek pyrophosphate assay on Ap.LS (Agrped1_689675)
# [1] = substrate: CC(C)=CCC/C(C)=C/CC/C(C)=C/CO[P@@](=O)(O)OP(=O)(O)O; assay: PPi release, EnzChek pyrophosphate assay; format: biochemical, Cyclocybe aegerita; settings: 37 °C, 1 h, enzyme 16.3% pure, product nerolidol
# Description: (§1) PPi release, EnzChek pyrophosphate assay on Aa.LNS (AAE3_109435)
# [2] = substrate: CC(C)=CCC/C(C)=C/COP(=O)(O)OP(=O)(O)O; assay: PPi release, EnzChek pyrophosphate assay; format: biochemical, Cyclocybe aegerita; settings: 37 °C, 1 h, enzyme 16.3% pure, product (R)-linalool
# Description: as §1
molecule,measurement,setting,value
"CC(C)=CCC/C(C)=C/CC/C(C)=C/COP(=O)(O)OP(=O)(O)O [(E,E)-FPP]","product formation in E. coli, GC-MS",Sc.LNS,Sc.LNS produced a larger amount of nerolidol than linalool in E. coli
CC(C)=CCC/C(C)=C/COP(=O)(O)OP(=O)(O)O [GPP],Km,Ap.LS (Agrped1_689675),3.8 ± 0.7 µM
B1,Km,[1],9.0 ± 2.3 µM
same,kcat,[1],0.055 ± 0.005 s⁻¹
same,kcat/Km,[1],6670 M⁻¹ s⁻¹
same,Km,[2],6.7 ± 4.6 µM
same,kcat,[2],0.00833 ± 0.00167 s⁻¹
same,kcat/Km,[2],1670 M⁻¹ s⁻¹
